T1: CD134 expressed on the cell surface of HT1080_OX40 cells (human, UniProt P43489 29-277)
T1 sequence (looked up): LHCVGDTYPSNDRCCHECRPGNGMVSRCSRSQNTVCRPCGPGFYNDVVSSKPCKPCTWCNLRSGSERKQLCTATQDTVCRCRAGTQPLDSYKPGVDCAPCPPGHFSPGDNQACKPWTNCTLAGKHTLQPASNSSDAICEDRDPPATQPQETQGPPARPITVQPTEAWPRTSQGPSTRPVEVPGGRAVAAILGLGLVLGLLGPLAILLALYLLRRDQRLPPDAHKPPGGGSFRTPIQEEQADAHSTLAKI

T2: CD134 protein (His-tagged, Sino Biological Inc. 10481-H08H) (human, UniProt P43489 29-216)
T2 construct: bought protein coated on ELISA plates; also called OX40; TNFRSF4; not shown: His tag
T2 sequence (looked up): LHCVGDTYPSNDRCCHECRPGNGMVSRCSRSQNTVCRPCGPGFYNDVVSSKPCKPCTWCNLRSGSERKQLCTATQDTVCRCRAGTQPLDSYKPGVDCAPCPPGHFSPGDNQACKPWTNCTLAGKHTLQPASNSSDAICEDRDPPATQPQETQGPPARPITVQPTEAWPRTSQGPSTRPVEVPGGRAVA


Experiments:
[1] = target: T1, CD134 expressed on the cell surface of …; assay: cell-based or functional assay
[2] = target: T1, CD134 expressed on the cell surface of …; assay: HT1080_OX40 cells, imaging; further: test concentration or dose not given here
[3] = target: T2, CD134 protein (His-tagged, Sino …); assay: ELISA, coated His-tagged CD134; further: test concentration or dose not given here
[4] = target: T1, CD134 expressed on the cell surface of …; assay: cell-based or functional assay; remark: listed apart in the source
Wherever Functional assay Cross-linked by F(ab′)2 fragment IL-8 is given: test concentration or dose not given here.
Wherever Functional assay IL-8 is given: test concentration or dose not given here.

Row | EC 50 (IL-8 release, cross-linked) [1] [µg/mL] | Cellular binding assay [RFU] [2] [RFU] | ELISA [abs. corr.] [3] [abs. corr.] | Functional assay Cross-linked by F(ab′)2 fragment IL-8 [4] [abs. corr.] | Functional assay IL-8 [4] [abs. corr.] | Binder
1 | 0.975 | 463 | 2.62 | 2.39 | 2.62 | P018.S.05.A.G05 (antibody, V domains shown, V regions on human Ig constant parts; also called AB134_18) VH: QSVEESGGRLVTPGTPLTLTCTVSGIDLSNHGMGWFRQGPGKGLEWIGIIYIDGGASYASWVNGRFTISKTSTTVDLKITSPTTEDTATYFCARGIPSDGDSSYYYFNLWGQGTLVTVAS VL: DVVMTQTPASVEAAVGGTVTIKCQASQSVYNKYLSWFQQKPGQPPKLLIYRASTLESGVSSRFKGSGSGTEFTLTISDLESADAATYYCQNNNGAGDNTDYTFGGGTEVVVK
2 | 2.77 | 180 | 0.865 | 2.17 | 0.832 | P018.S.12.A.D06 (antibody, V domains shown, V regions on human Ig constant parts; also called AB134_71) VH: QSVEESGGRLVTPGTPLTLTCTVSGFSLSSYDMSWVRQAPGKGLEWIGIIYVSGTTDYASWAKGRFTISKTSTTVDLKMTSLTTEDTATYFCARDIYVDEIGCFDLWGQGTLVTVSS VL: DILMTQTPASVEVAVGGTVTIKCQASQNIRTYLAWYQQKPGQPPKLLIYRASTLESGVPSRFKGSGSGIEFSLTISDLESADAATYYCQNYDGGSSTGFGGGTEVVVK
3 | 0.785 | 406 | 1.96 | 2.19 | 0.253 | P018.S.11.A.C04 (antibody, V domains shown, V regions on human Ig constant parts; also called AB134_29) VH: QSVEESGGRLVTPGTPLTLTCTVSGFSLGSYPMIWVRQAPGKGLEWIGYIDPGRGTTLYASWARGLFTISKTSTTVDLAMTSPTAADTATYFCARSYPGDGAGDLWGQGTLVTVSS VL: DVVMTQTPASVSEPVGGTVTIKCQASESISNYFSWYQQKPGQPPKLLIYGASTLESGVSSRFKGSGSGTDFTLTISDLESADAATYYCQCTYYGSGDVGGAFGGGTEVVVK
4 | 0.217 | 507 | 1.53 | 2.19 | 0.586 | P018.S.11.A.C03 (antibody, V domains shown, V regions on human Ig constant parts; also called AB134_28) VH: QSVEESGGRLVTPGTPLTLTCKVSGFSLSTYDMIWVRQAPAKGLEYIGIIGGSGFTYYANWAKGRFTISKTSTTVDLKITSPTTEDTATYFCARNNYDMWGPGTLVTVSS VL: DVVMTQTPASVSEPVGGTVTIKCQASQSISNELAWHQQKPGQRPNLLIYGASTLESGVPSRFKGSRSGTEYTLTISDLESDDAATYYCQCTYYGSSYVGGAFGGGTEVVVK
5 | 1.39 | 140 | 0.206 | 2.38 | 0.135 | P018.S.04.A.E06 (antibody, V domains shown, V regions on human Ig constant parts; also called AB134_11) VH: QSVEESGGRLVTPGTPLTLTCTVSGFSLSGYDMSWVRQAPGKGLEWIGYIYAGSTYYANWAKGRFTISKTSTTVDLKMTSPTTEDTATYFCTRVGAGYSGVWAYFNLWGPGTLVTVSS VL: AQVLTQTPSSVSAAVGGTVTINCQSSQSVDSDNYLAWYQQKPGQPPKLLIYDASKLASGVPSRFTGSGSGTQFTLTISGVQSDDAATYYCQGTYGNIGWYFAFGGGTEVVVK
6 | 0.461 | 482 | 2.64 | 2.27 | 1.82 | P018.S.04.A.B06 (antibody, V domains shown, V regions on human Ig constant parts; also called AB134_7) VH: QSVEESGGRLVTPGTFLTLTCTVSGFSLSSYAMNWVRQSPGKGLEWIGIIYSDDIAYYASWAKGRFTISKTSTTVTLKMTSLTVADTATYFCARGDGDRSIWSFDLWGPGTLVTVSS VL: AQVLTQTPSPVSAAVGGTVTISCQSSESVWNNNWLAWYQQKPGQPPNLLIYEASTLASGVSSRFKGSGSGTQFTLTVSEVQSDDAATYYCQGGYYDSSPIWTFGGGTEVVVK
7 | 0.733 | 511 | 2.12 | 2.17 | 0.341 | P018.S.12.A.F05 (antibody, V domains shown, V regions on human Ig constant parts; also called AB134_81) VH: QSLEESGGGLVQPGGSLKLSCKASGIDFSSYGVSWVRQAPGKGLEWIAYTYPDYGSTDYASWVNGRFTISLDNAQNTVFLQMTSLTAADTATYFCASSSNGWGGGFYFDLWGPGTLVTVSS VL: ALVMTQTPSPVSAAVGGTVTINCQASEDIYSNLAWFQQKPGQPPKLLIYGASTLASGVPSRFSGSGSGTEFTLTINDLKSDDAATYYCLGVYTYITTDPNAFGGGTEVVVK
8 | 0.63 | 486 | 2.85 | 2.21 | 0.879 | P018.S.04.A.A06 (antibody, V domains shown, V regions on human Ig constant parts; also called AB134_5) VH: QSLEESGGRLVTPGTPLTLTCTVSGFSLHNYNIQWVRQAPGKGLEWIGWILTDGSPYCANWAKGRFTISKTSTTVDLKITSPTIEDTATYFCARMGDYNINGLWGPGTLVTVSS VL: AQVLTQTPSSVSAAVGGTVTINCQSSQRIYNNDFLSWYQQKPGQPPKLLIYAASTLASGVPSRFKGSGSGTQFTLTISDLESDDAATYYCQGGYSSSGWYLPFGGGTEVVVK
9 | 0.44 | 402 | 2.36 | 2.21 | 2.07 | P018.S.04.A.F06 (antibody, V domains shown, V regions on human Ig constant parts; also called AB134_13) VH: QSVEESGGRLVTPGTPLTLTCTVSGIDLSSSAMSWVRQAPGKGLEWIGIIGYNDFTYYANWAKGRFTISKTSTTVDLKMTSPTTEDTATYFCARGGSSSYSDYVFDPWGPGTLVTVSS VL: AFEMTQTPSSVSEPVGGTVTIKCQASQSIYSNLAWYQQKPGQRPKLLIYDASDLASGVPSRFSGSGYGTEFTLTISDLESADAATYYCQSYYGISSYGVAFGGGTEVVVK
10 | 1.17 | 451 | 2.97 | 2.39 | 0.356 | P018.S.04.A.H05 (antibody, V domains shown, V regions on human Ig constant parts; also called AB134_15) VH: QSVEESGGRLVTPGTPLTLTCTVSGFSLSSYAMGWVRQAPGKGLEWIGWINTAGGTDYTSWAKGRFTISKTSTTVDLKVTSLTTEDTATYFCARYDYYYFDLWGQGTLVTVSS VL: AQVLTQTASSVSAAVGGTVTISCQSSQSVYDNNWLAWYQQKPGQPPKLLIYSASTLASGVPSRFKGSGSGTEFTLTISDLESDDAAAYYCHGVYSGSIHAFGGGTEVVVI
11 | 2.09 | 537 | 1.84 | 2.16 | 0.732 | P018.S.11.A.A06 (antibody, V domains shown, V regions on human Ig constant parts; also called AB134_23) VH: QEQLVESGGGLVQPEGSLTLTCKASGFSFSSANCMHWVRQAPEKGLQWIGCVCIGDGTTYYASWVNGRFSISATSSTTVTIQMTSLTAADTATYFCARDLGLWGPGTLVTVSS VL: AIVMTQTPSSKSVPVGDTVTINCQASESVDKYTQCSWYQQKPGQPPKLLIYYASTLASGVPSRFKGSGSGTQFTLTISDVVSDDAATYYCSGYKGGSADMIAFGGGTELVVT
12 | 0.865 | 550 | 1.9 | 2.15 | 0.26 | P018.S.11.A.A05 (antibody, V domains shown, V regions on human Ig constant parts; also called AB134_22) VH: QSVEESGGRLVTPGTPLTLTCTVSGFSLNSYDMSWVRQAPGKGLEWIGFISASGSIYFANWAKGRFTISKTSTTVDLKITSPTTEDTATYFCASDSYGWAYVYYFNLWGPGTLVTVSS VL: AVVLTQTPASVSAAVGGTVTINCRASEDIGSYLGWYQQKPGQPPKLLMHDASDLASGVPSRFSGSGSGTEFTLTISGVQSDDAATYYCQSAWYSSGTDKMAFGGGTEVVVK
13 | 1.01 | 659 | 2.21 | 2.23 | 0.455 | P018.S.12.A.E04 (antibody, V domains shown, V regions on human Ig constant parts; also called AB134_75) VH: QSVEESGGRLVTPGTPLTLTCTVSGFSLNSYDMSWVRQAPGKGLEWIGFISASGSIYFANWAKGRFTISKTSTTVDLKITSPTTEDTATYFCASDSYGWAYVYYFNLWGPGTLVTVSS VL: AVVLTQTPASVSAAVGGTVTINCRASEDVGSYLGWYQQRAGQPPKLLMHDASDLASGVPSRFSGSGSGTEFTLTISGVQSDDAATYYCQSAWLGTNTDKMAFGGGTEVVVK
14 | 0.355 | 510 | 2.49 | 2.3 | 1.01 | P018.S.04.A.D06 (antibody, V domains shown, V regions on human Ig constant parts; also called AB134_9) VH: QSLEESGGDLVKPGASLTLTCTASGFSFSSSYYMCWVRQAPGKGLEWIACIYTGDGASYYASWAKGRFTISKPSSTTVTLQVTSLTAADTATYFCGRGEYDNDWGFGLWGPGTLVTVSS VL: AYDMTQTPASVEVPVGGTVTINCQASEDISSYLSWYQQKPGQPPELLIYYASNLASGVSSRFKGSRSGTEFTLTISDLESADAATYYCQCSNYGGSWTFGGGTEVVVK

From US20210253725A1 (BIONTECH, published 2021)
